Data reported in paper doi:10.1101/2025.11.19.689067 (bioRxiv, 2025).

T1: DENV2 NS1 (recombinant, biotinylated, on Luminex beads) (dengue virus serotype 2, UniProt P29990 776-1127)
T1 sequence: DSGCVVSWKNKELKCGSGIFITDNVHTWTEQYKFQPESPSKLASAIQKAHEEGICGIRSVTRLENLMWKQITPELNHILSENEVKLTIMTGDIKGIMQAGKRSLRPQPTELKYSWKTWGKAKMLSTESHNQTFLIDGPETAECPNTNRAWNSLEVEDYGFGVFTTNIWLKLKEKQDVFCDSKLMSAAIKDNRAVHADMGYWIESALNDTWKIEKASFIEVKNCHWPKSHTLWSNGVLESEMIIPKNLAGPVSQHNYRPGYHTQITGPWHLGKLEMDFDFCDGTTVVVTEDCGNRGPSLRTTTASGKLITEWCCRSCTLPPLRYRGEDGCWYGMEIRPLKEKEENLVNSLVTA


Legend:
Test in all cases: bead-based binding assay (Luminex)
[1] = target: DENV2 NS1 wing-Halotag (residues 30-174) (dengue virus serotype 2)
[2] = target: DENV2 NS1 β-ladder-Halotag (residues 178-352) (dengue virus serotype 2)
[3] = target: T1, DENV2 NS1 (recombinant, biotinylated, …); settings: both partners purified

Molecule	fold relative binding (EFNB1 Fc over Gluc Fc) [1]	fold relative binding (EFNB1 Fc over Gluc Fc) [2]	fold binding over the Gluc-Fc negative control [3]
EFNB1 RBD-Fc fusion protein (from UniProt P98172 28-164)	50 fold	15 fold	
EFNB1 RBD-Fc fusion protein (Fc fusion) LAKNLEPVSWSSLNPKFLSGKGLVIYPKIGDKLDIICPRAEAGRPYEYYKLYLVRPEQAAACSTVLDPNVLVTCNRPEQEIRFTIKFQEFSPNYMGLEFKKHHDYYITSTSNGSLEGLENREGGVCRTRTMKIIMKV			40 fold
